From patent publication US20240376207A1 come the findings set out here.

Like-named read-outs stand apart in the source and are kept apart here.

Common to all, as to experiment: cell-based or functional assay
In experiment [1] the target is human PVRIG expressed on cells (human) (UniProt Q6DKI7).
The target is the same in experiment [2]. This is another data set of the same source.
The target is the same in experiment [3]. The source holds these as a separate data set.

Sequence of human PVRIG expressed on cells (human) (Q6DKI7 41-326 limits assumed, form in doubt): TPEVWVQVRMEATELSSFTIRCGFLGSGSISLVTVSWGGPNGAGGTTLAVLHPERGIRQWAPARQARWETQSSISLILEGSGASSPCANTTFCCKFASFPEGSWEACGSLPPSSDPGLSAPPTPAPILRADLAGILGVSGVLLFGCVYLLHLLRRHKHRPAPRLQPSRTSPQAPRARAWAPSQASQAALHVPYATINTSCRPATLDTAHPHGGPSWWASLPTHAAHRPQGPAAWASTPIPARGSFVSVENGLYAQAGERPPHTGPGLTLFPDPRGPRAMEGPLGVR

In experiment [1], IgG4 (control antibody) came in with an MLR IFNγ (pg/mL), 20 nM antibody (control baseline) of 74 pg/mL and an MLR IFNγ (pg/mL), 100 nM antibody (control baseline) of 89 pg/mL. In experiment [2], this substance registered an MLR IFNγ (pg/mL), 4 nM antibody (control baseline) of 984 pg/mL; an MLR IFNγ (pg/mL), 20 nM antibody (control baseline) of 814 pg/mL; an MLR IFNγ (pg/mL), 100 nM antibody (control baseline) of 1310 pg/mL; an NK92 killing of K562, killing activity (%), 20 nM antibody (control baseline) of 22%. In addition, the NK92 killing of K562, killing activity (%), 100 nM antibody (control baseline) in experiment [2] worked out at 22%. In experiment [3], this substance returned an NK92 killing of K562, killing activity (%), 4 nM antibody (control baseline) of 11.2%; an NK92 killing of K562, killing activity (%), 20 nM antibody (control baseline) of 11.7%; an NK92 killing of K562, killing activity (%), 100 nM antibody (control baseline) of 9.2%.
